The record followed here is patent publication US20110229491A1 (published 2011).

This test addresses T1, MCM5:YFPC fusion protein (Arabidopsis, UniProt O80786 1-727).
T1 construct: BiFC construct expressed in tobacco leaf epidermal cells; not shown: YFPC: fragment with amino acid residues 155-238 of YFP (plasmid pUC-SPYCE)
T1 sequence (looked up): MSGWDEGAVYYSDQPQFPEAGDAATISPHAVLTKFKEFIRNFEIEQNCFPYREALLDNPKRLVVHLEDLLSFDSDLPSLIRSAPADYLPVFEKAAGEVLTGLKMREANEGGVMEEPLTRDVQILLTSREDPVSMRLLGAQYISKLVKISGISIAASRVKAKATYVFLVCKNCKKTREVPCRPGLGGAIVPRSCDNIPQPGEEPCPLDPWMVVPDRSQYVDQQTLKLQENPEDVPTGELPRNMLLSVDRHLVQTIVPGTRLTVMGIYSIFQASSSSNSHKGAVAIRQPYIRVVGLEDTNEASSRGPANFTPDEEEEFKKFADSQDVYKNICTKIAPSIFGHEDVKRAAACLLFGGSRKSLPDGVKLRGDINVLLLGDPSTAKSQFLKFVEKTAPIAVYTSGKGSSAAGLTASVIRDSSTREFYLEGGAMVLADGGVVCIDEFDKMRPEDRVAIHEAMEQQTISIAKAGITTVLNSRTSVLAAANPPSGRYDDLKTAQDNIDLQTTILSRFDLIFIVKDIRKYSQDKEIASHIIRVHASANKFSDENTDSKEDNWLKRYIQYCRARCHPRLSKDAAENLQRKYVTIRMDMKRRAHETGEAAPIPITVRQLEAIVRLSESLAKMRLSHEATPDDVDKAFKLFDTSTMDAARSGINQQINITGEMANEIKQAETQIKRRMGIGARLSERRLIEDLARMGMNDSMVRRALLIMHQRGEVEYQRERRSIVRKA
Put plainly: BiFC in tobacco leaf epidermal cells. On the procedure: Full-length open reading frames of ETG1 and MCM5 were transferred into the pH7FWG2 destination vector (Karimi et al., 2002) by LR recombination reaction, resulting in ETG1:EGFP and MCM5:EYFP fusion proteins, respectively. BiFC assay was performed as described by Walter et al. (2004). The coding region of ETG1 was amplified with 5′-[…]-3′ (SEQ ID NO:28) and 5′-[…]-3′ (SEQ ID NO:29) primers, and cloned via BamHI-XhoI into the plasmid pUC-SPYNE (Walter et al., 2004), resulting in the plasmid expressed as the ETG1:YFPN fusion protein; the coding region of MCM5 was also obtained with 5′-[…]-3′ (SEQ ID NO:30) and 5′-[…]-3′ (SEQ ID NO:31) primers, and cloned via SpeI-SalI into the plasmid pUC-SPYCE (Walter et al., 2004) to give rise to the plasmid expressed as the MCM5:YFPC fusion protein.
The Agrobacterium strains containing both BiFC constructs were co-infiltrated into tobacco leaves. Epidermal cell layer of tobacco leaves were assayed for fluorescence using confocal laser scanning microscope (Zeiss) two to four days after infiltration. […] As expected, no fluorescence was detected when any combination with empty vectors was introduced into tobacco cells (FIG. 5, Panel C; ETG1-YFPN and YFPC, YFPN and MCM5-YFPC).

B1: ETG1:YFPN fusion protein (other, UniProt Q501D5 1-589, looked up)
chain: MGGPAYDCLTNPLGAVRFSFVNALSSGYDPASSVGKDWGVVDLFRHYFSDESAISQVPILDSSSIKWVQPKTLVRFRGMIQDMLGNEFYAGAYKDDSTWRTNKYSDVSQFPEGSSTEIQVWERRLLYCVPVPGKNQWTECSSQELKNRFLDLTGQNREKRVRVDEEMTDSMDSSTLEAGRNGSPFKKMKVGEATSSASESQVPQTSGIPPATSADSLPCLVKIYDSPESDLKLNDVVEFLGVLTFDPIVMMDTDTLDENSDALSEAESVQMPSGKVPRLHCLIHRKLETQHFLHGSSLLPEPKSPQIFKEIRESLMKYLTGLLGNDHIAAQFLLLHLLSKVHGRVDNVAVGKLSLNLIHLNKESMSIFGTQLSGALKSLLPFTQSIPLTIEYLNTASFGPKKDYGINRLMPGVLQIADGTHLILDETELQPGTLNSVGVENANLLKNLLECQKVEYDFQYYKMEMATDVQMLIFSEGKSNIMPADLVLPLQPSQVNSLEVITPETAETWRCYLATCKSLSHSIGQELQQVVENDLVAARQTDRSLGSQDLSRLLTMARMMSVSYGETTLSLEHWQMVLELERLRKERLK
notes: range 1-589;range 1-154; BiFC construct expressed in tobacco leaf epidermal cells; not shown: YFPN: fragment with amino acid residues 1-154 of YFP (plasmid pUC-SPYNE)
B1: the binding result is “binds”.
